Test results reported in patent US12006343B2, “C4BP-based compounds for treating immunological diseases” (FUNDACIO INSTITUT D'INVESTIGACIO BIOMEDICA DE BELLVITGE …, priority 2017, dated 2024).
“Also recorded” adds a separate entry of the source.

B1: C4BP(β−): plasma-purified C4BP minor isoform lacking beta chain; C4BPd3 is the CAIA group given 50 μg sc at days 3 and 5 (protein, UniProt P04003 49-597, looked up)
C4b-binding protein alpha …: NCGPPPTLSFAAPMDITLTETRFKTGTTLKYTCLPGYVRSHSTQTLTCNSDGEWVYNTFCIYKRCRHPGELRNGQVEIKTDLSFGSQIEFSCSEGFFLIGSTTSRCEVQDRGVGWSHPLPQCEIVKCKPPPDIRNGRHSGEENFYAYGFSVTYSCDPRFSLLGHASISCTVENETIGVWRPSPPTCEKITCRKPDVSHGEMVSGFGPIYNYKDTIVFKCQKGFVLRGSSVIHCDADSKWNPSPPACEPNSCINLPDIPHASWETYPRPTKEDVYVVGTVLRYRCHPGYKPTTDEPTTVICQKNLRWTPYQGCEALCCPEPKLNNGEITQHRKSRPANHCVYFYGDEISFSCHETSRFSAICQGDGTWSPRTPSCGDICNFPPKIAHGHYKQSSSYSFFKEEIIYECDKGYILVGQAKLSCSYSHWSAPAPQCKALCRKPELVNGRLSVDKDQYVEPENVTIQCDSGYGVVGPQSITCSGNRTWYPEVPKCEWETPEGCEQVLTGKRLMQCLPNPEDVKMALEVYKLSLEIEQLELQRDSARQSTLDKEL
modifications: alpha-chain-only isoform, plasma-purified

How the values were obtained:
[1] = tested on: lupus-prone NZBWF1 mice; assay: Renal function (24 h proteinuria) in spontaneous SLE mouse model NZBWF1; assay type: in vivo; conditions: CYP 50 mg/kg IP every 10 days, up to week 37
Description: Mice, Study Design and Follow Up
NZB/NZW F1 or NZBWF1/J (Charles-River), NZB/NZW F1 (Jackson, code 100008) are a hybrid cross between NZB/B1NJ (Jackson, code 000684) Female x NZW/LacJ (Jackson, code 001058) Male. NZBWF1/J mice develop an autoimmune disease resembling human systemic lupus erythematosus. The inventors used 58 females (30-35 g/each) aged 15 weeks for the study (4-5 animals per cage). The animals were maintained under standard laboratory conditions, at 20-24° C. and 40-70% relative humidity, with 12-hour fluorescent light/12-hour dark cycle. They were feed standard diet and tap water ad libitum. […]
Dose Selection and Administration.
The selection of the C4BP(β−) dose for in vivo administration was based in previous studies employing complement-related proteins in immune-inflammatory pathologies. Blom et al. (Blom et al. 2009. Ann. Rheum. Dis., 68:136-42) used the C4BP isoform lacking β chain in experimental collagen-induced arthritis (CIA) and collagen antibody-induced arthritis (CAIA) mice to investigate the influence of complement activity in the treatment of rheumatoid arthritis. These authors administered intraperitoneally C4BP (2 mg/mouse) using a multiple dose-regimen once every two days in preventive and therapeutic experiments. Thus, in the current study, C4BP(β−) was administered both intraperitoneally (IP) and subcutaneously (SC) into NZBWF1 mice for three months (between six and nine months of age).
Alperovich et al (Alperovich et al. 2007. Lupus, 16:18-24) administered cyclophosphamide (CYP) to NZBWF1 mice at 50 mg/kg IP every 10 days.
(§1) Both IP and SC administrations for C4BP(β−), CYP and PBS (150 μl/each) were performed with a 25-gauge needle during 30 s, after rinsing the skin with 70% ethanol.
(§2) The detailed administration schedule was as follows (Table 5):
Body weight was determined twice monthly from the beginning to the end of follow-up. Mice were placed in metabolic cages to collect 24 h urine specimens before the onset of treatment and monthly thereafter. Blood was obtained from the tail vein at monthly intervals.
Renal Function Analysis: Proteinuria
24 h urinary protein was determined by pyrogallol red (Olympum Autoanalyzer AU400, Hamburg, Germany) in the Veterinary Clinical Biochemistry Laboratory from Universitat Autonoma de Barcelona.
(§3) One-way analysis of variance (ANOVA) with post hoc tests was performed to compare proteinuria throughout the follow up. Survival data were analyzed using Kaplan-Meier curves and long-rank test. P value<0.05 was considered significant. Data are expressed as mean±SEM.

[2] = tested on: lupus-prone NZBWF1 mice; assay: Kaplan-Meier survival in spontaneous SLE mouse model NZBWF1; assay type: in vivo; conditions: CYP 50 mg/kg IP once every 10 days
Description: NZBWF1/J mice develop an autoimmune disease resembling human systemic lupus erythematosus. […] The animals were maintained under standard laboratory conditions, at 20-24° C. and 40-70% relative humidity, with 12-hour fluorescent light/12-hour dark cycle. They were feed standard diet and tap water ad libitum.
as §1, §2, §3

[3] = tested on: NZBWF1 mice; assay type: in vivo, mouse; conditions: treatment weeks 24-36
Description: The animals were observed daily throughout the experimental period to check out any local and systemic reaction to the treatment, as well as other signs of illness and/or behavioral changes in order to obtain tolerance and toxicological information. Body weight was determined twice monthly from the beginning to the end of follow-up. Mice were placed in metabolic cages to collect 24 h urine specimens before the onset of treatment and monthly thereafter. Blood was obtained from the tail vein at monthly intervals.

[4] = tested on: NZBWF1 mice; conditions: CYP 50 mg/kg IP every 10 days; Alperovich et al. 2007; cited from earlier work
[5] = tested on: human monocyte-derived DCs; assay: Immunomodulatory activity over human monocyte-derived DCs: CD83/CD86 surface expression by flow cytometry after LPS maturation; assay type: cell-based; conditions: FIG. 4
Description: In Vitro Functional Assessment of the Immunomodulatory Activity of Full-Length C4BP(β−) and C4BP(β−) Variants Over DCs
The inventors used for the in vitro study both C4BP(β+) (WT) and recombinant C4BP(β−) isoforms, and the above-referred mutants or variants: Mutant 1 and Mutant 2. C4BP(β+) isoforms refer to the major C4BP α7β1 plus the minor C4BP α6β1 isoforms (both in complex with ProS) purified from pooled human plasma.
RPMI 1640 was supplemented with 100 μg/ml of streptomycin, 100 IU/ml of penicillin, 2 mM L-glutamine (all from Invitrogen, Carlsbad, CA) and 10% heat-inactivated fetal bovine serum (Linus, Cultek, Spain) (complete medium), unless otherwise stated.
Peripheral blood mononuclear cells (PBMCs) were obtained from buffy coat preparations collected from healthy donors from the Blood and Tissue Bank (Barcelona, Spain) after Ficoll-Paque™ density centrifugation (GE Healthcare Bio-Sciences AB; Uppsala, Sweden). For surface phenotype determination, monocytes were plated at 1×10^6 cells/ml in 60 mm culture plates (Corning, Spain), in RPMI 1640 medium without serum, and allowed to adhere for 2 h at 37° C. in 5% CO2. The non-adherent cells were removed by washing in PBS.
Monocyte-derived DCs were generated supplementing the monocyte cultures with complete RPMI 1640 medium plus GM-CSF (800 UI/ml) and IL-4 (500 UI/ml) (both from Gentaur, Kampenhout, Belgium) at day 0 and day 3 of culture. For DC maturation, at day 5 iDCs were further stimulated for 48 h with 5 μg/ml LPS (Escherichia coli 055.B5, Sigma L2880, Copenhagen, Denmark).
Staining using the fluorescent dye 7-amino-actinomycin D (7-AAD) (BD Pharmigen) and flow cytometry analysis was employed to assess the viability status of C4BP-treated and untreated DCs.
Cell surface phenotypes were analyzed by flow cytometry using the following mAbs: FITC-conjugated anti-CD83 (HB15a) and PE-conjugated anti-CD86 (HA5.2B7) (all from Beckman-Coulter). The respective isotype controls FITC-conjugated anti-IgG2b (H2) and PE-conjugated anti-IgG2b (H2), were from the same commercial sources. After washing with PBS, cells were subsequently stained with 3 μl mAb/10^5 cells in 100 μl of FACS buffer (PBS containing 1% BSA and 0.1% sodium azide) for 20 min at room temperature. To exclude dead cells and debris, DCs were gated according to forward scatter (FSC) and side scatter (SSC) parameters. Stained cells were analyzed using a FACSCalibur (Becton Dickinson, Franklin Lakes, NJ) equipped with CellQuestPro software (Becton Dickinson).
In Vitro Functional Assessment of C4BP(β−) Immunomodulatory Activity Over DCs
The inventors used for the in vitro study both C4BP(+) and C4BP(β−) isoforms. C4BP(3+) isoforms refer to the major C4BP α7β1 plus the minor C4BP α6β1 isoforms (both in complex with ProS) purified from pooled human plasma, as previously described (Dahlbäck B. 1983. Biochem J., 209:847-56).

[6] = tested on: Balb/c male mice, CAIA model; assay type: in vivo, mouse
Text: Collagen-antibody induced arthritis (CAIA) is a simple mouse model of human rheumatoid arthritis (RA) induced by the systemic administration of a cocktail of monoclonal antibodies directed against conserved auto-antigenic collagen type II epitopes, followed by a single injection of lipopolysaccharide (LPS). CAIA is a useful model to study the effector inflammatory phase of arthritis without involving the priming phase of the immune response. The murine CAIA model shares several clinical, immunological and pathological features with RA. Therefore, this model is useful to study the pathogenic mechanisms involved in RA disease as well as for testing new therapies.
Balb/c male mice aged 7-8 weeks were supplied by Envigo. The animals were acclimated during 12 days. The animals were maintained in an environmentally controlled room with ventilation, temperature (22±2° C.), relative humidity (35-65%), and cycle light/dark (12 h/12 h). The animals were housed in groups of 3-5 animals/cage. The maintenance diet was supplied by Harlan Interfauna Ibérica, S. L. (“2014 Harlan Teklad Global Diets”) and they were feed diet and water ad libitum.
Plasmatic C4BP(β−) was supplied at a concentration of 6.2 mg/ml. C4BP(β−) solutions were prepared to the desired concentration 0.33 mg/ml (for 50 μg doses) by dilution with Dulbecco's phosphate-buffered saline (DPBS) of C4BP(β−) 6.2 mg/ml stock solution.
Two reference compounds were used: dexamethasone (Sigma, Ref. D1756) and Enbrel® (etanercept) (Pfizer, Ref. 655950).
Reference compound dexamethasone was dissolved in vehicle (0.1% Tween-80+99% carboxymethyl cellulose (CMC) (0.5% w/v) in water at a concentration of 0.1 mg/ml.
Enbrel® was prepared at 6 mg/ml in DPBS by dilution of 50 mg/mL stock solution.
Experimental Procedure Day 0: Arthritis Induction
On day 0, animals for experimental group C4BPd3 were randomly selected (n=8) and identified using tail code numbers and weighted.
Each mouse was sensitized by the administration of 2 mg anti-type II collagen antibodies cocktail (ArthritoMAB™ cocktail solution, 0.2 mL, i.v., day 0) in the caudal vein.
Day 3: LPS Synchronization
Animals were intraperitoneally administered with 0.1 mL of LPS solution (0.7 mg/ml, 70 μg/animal).
50 μg of C4BP(β−) were administered subcutaneously at day 3 to treatment group C4BPd3.
50 μg of C4BP(β−) were administered subcutaneously at day 5 to treatment group C4BPd3.
Day 5: Animal Distribution
On day 5 after sensitization, the rest of the animals developing clinical signs of arthritis (n=18) were evaluated and distributed in base of CAIA+incidence. Animals were homogeneously randomized (arthritis score) into the CAIA control group, dexamethasone (1 mg/kg at days 5-11, p.o.) and Enbrel®-treated groups (30 mg/kg at days 5-11, s.c.) (n=6). Animals were identified using tail code numbers and weighted.
Group 2 was not included in the distribution because of the previous test item administration.
The arthritis score was determined using the criteria of Table 9.
Treatment: • C4BPd3 group: 50 μg of C4BP(β−) were subcutaneously injected to animals on days 3 and 5. Volume: 0.150 mL. • Reference compound treatments and CAIA control groups (days 5-11): • Enbrel®: 30 mg/kg of Enbrel® was subcutaneously administered to Enbrel group from days 5 to 11. Volume: 5 mL/kg. • Dexamethasone: 1 mg/kg dexamethasone was orally administered to dexamethasone group from days 5 to 11. Volume: 10 mL/kg. • CAIA control group: 0.150 mL of DPBS was subcutaneously administered from days 5 to 11. Arthritis Monitoring:
Body weights were registered daily from days 0-12 in C4BPd3 and from days 5-12 in CAIA control, dexamethasone and Enbrel® groups. Arthritis scores were determined by the same observer in order to avoid observer bias.
The study was finished at day 12.
Animals were anesthetized with isoflurane. Ankles and wrists thickness were measured using a dial thickness gauge. Serum samples were collected and stored at −20° C. […]

| Molecule | development of proteinuria [1] | survival [2] | toxicity and behavioral changes [3] | histological lesions [4] | serum anti-DNA antibodies [4] | semi-mature, anti-inflammatory phenotype conferred to LPS-matured MoDCs (immunomodulatory activity) ([5]; MoDCs pre-incubated with 5 μg/ml protein, LPS challenge) | CD83 and CD86 surface marker expression ([5]; human MoDCs, 5 μg/ml C4BP isoform, LPS 5 μg/ml) | protection lasting until day after the arthritis induction ([6]; 50 μg sc at days 3 and 5) | inhibition of arthritis score vs. CAIA controls AUC ([6]; C4BP(β−) 50 μg sc days 3 and 5, dexamethasone 1 mg/kg po days 5-11) | ankle thickness ([6]; day 12, C4BP(β−) 50 μg sc d3 and d5, dexamethasone 1 mg/kg po d5-11, Enbrel 30 mg/kg sc d5-11) | wrist thickness vs. CAIA control ([6]; day 12, regimens as Table 8) | body weight vs CAIA control group ([6]; mouse, in vivo) | arthritis scores / progression of arthritis ([6]; regimens as Table 8, vs CAIA control group) |
| --- | --- | --- | --- | --- | --- | --- | --- | --- | --- | --- | --- | --- | --- |
| O=P1(N(CCCl)CCCl)NCCCO1 (centres unmarked) [CYP, Cyclophosphamide, reference compound] | prevented the development of proteinuria | survived throughout the period of observation; also recorded: increased survival | neither toxicity nor behavioral changes were observed | arrested and reversed almost all histological lesions | appropriately controlled | – | – | – | – | – | – | – | – |
| B1 | – | – | neither toxicity nor behavioral changes were observed | – | – | able to confer an analogous semi-mature, anti-inflammatory phenotype | restrain similarly CD83 and CD86 surface marker expression | ≥ 12 days | 47% | 2.74±0.08 mm | No changes | No remarkable differences | significantly ameliorated the progression of arthritis |
